The text below walks through data of patent publication US20190307797A1 (MAX DELBR CK CENTRUM F R MOLEKULARE MEDIZIN IN DER …, published 2019).

This test concerns the target T1, purified BCMA (CD269) extracellular domain (human, UniProt Q02223 4-54).
T1 construct: also called BCMA extracellular domain; extracellular domain of CD269
T1 sequence: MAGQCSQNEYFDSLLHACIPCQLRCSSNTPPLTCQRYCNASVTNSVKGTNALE
The experiment in a line: co-crystallisation, crystal structure of the complex.

B1: Fab fragment prepared from the mouse or chimeric antibody from which the CAR was derived (chimeric antibody J22.9-xi) (Fab, V domains shown)
VH: QVQLQQSGGGLVQPGGSLKLSCAASGIDFSRYWMSWVRRAPGKGLEWIGEINPDSSTINYAPSLKDKFIISRDNAKNTLYLQMSKVRSEDTALYYCASLYYDYGDAMDYWGQGTSVTVSS
VL: DIVMTQSQRFMTTSVGDRVSVTCKASQSVDSNVAWYQQKPRQSPKALIFSASLRFSGVPARFTGSGSGTDFTLTISNLQSEDLAEYFCQQYNNYPLTFGAGTKLELKR
notes: also called J22.9-xi Fab; Fab fragments prepared from mouse or chimeric antibodies
As to B1, the binding result was “binds”.
